In publication PMC4072508, “Genome-Wide Prediction and Validation of Peptides That Bind Human Prosurvival Bcl-2 Proteins” (PLoS Computational Biology, 2014) one finds SPOT signal as a fraction of Bim BH3's signal on the same receptor and array data, which are given here for 37 molecules.

The target of test [1] is Bcl-xL, Q07817. Put plainly: peptide SPOT array, c-Myc-tagged receptor at 1 uM or 100 nM, anti-c-Myc-Cy3.
In test [2] the target is T1, Mcl-1, Q07820.
T1 chain: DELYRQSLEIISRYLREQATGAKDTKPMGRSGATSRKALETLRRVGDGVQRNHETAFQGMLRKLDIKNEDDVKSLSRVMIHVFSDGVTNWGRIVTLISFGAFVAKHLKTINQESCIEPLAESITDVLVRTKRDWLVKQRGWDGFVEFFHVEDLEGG
The test is described as above.

Chain of Bcl-xL, Q07817 (Q07817 1-209): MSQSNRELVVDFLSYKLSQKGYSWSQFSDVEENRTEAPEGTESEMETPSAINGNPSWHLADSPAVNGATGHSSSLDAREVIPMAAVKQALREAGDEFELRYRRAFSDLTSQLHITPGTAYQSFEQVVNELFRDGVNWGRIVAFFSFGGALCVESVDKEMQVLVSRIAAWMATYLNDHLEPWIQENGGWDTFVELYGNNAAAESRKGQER

As for EKVLIFGGDILKFAGDALLALWRVER [ADCY10], the SPOT signal as a fraction of Bim BH3's signal on the same receptor and array is 0.04 in test [1] and 0.02 in test [2].

Take CALIAGATLHVAWLGDSQVILVQQGQ: the SPOT signal as a fraction of Bim BH3's signal on the same receptor and array was determined as 0.02 in test [1] and 0.01 in test [2].

HPRRESQVRQLAWILDGVWVSIRLDS: the SPOT signal as a fraction of Bim BH3's signal on the same receptor and array in test [1] and in test [2] was 0.03 each time.

For QLSKPGAALYLQSILEGFKEAVQYVL [SOS1], the SPOT signal as a fraction of Bim BH3's signal on the same receptor and array in test [1] and in test [2] was 0.03 throughout.

Take RVSWNITGTVLASSGDDGCVRLWKAN [SEH1L]: the SPOT signal as a fraction of Bim BH3's signal on the same receptor and array in test [1] is 0.3; in test [2], 0.08.

Take DEHISYVATKVCHLLDQLEGVNTPRQ [EXOC5]: the SPOT signal as a fraction of Bim BH3's signal on the same receptor and array in test [1] and in test [2] was 0.02 throughout.

As for AKFLLYLGHSLSTWGDRMWHFAVSVF [SLC40A1], the SPOT signal as a fraction of Bim BH3's signal on the same receptor and array in test [1] was 0.1; in test [2], 0.07.

Consider ALKKADVGFAMGIALTDVAKEASDII [ATP2B1], for which the SPOT signal as a fraction of Bim BH3's signal on the same receptor and array in test [1] was determined as 0.02; in test [2] it was 0.01.

As to SHALICISHWDLGIGDRHLNNFMVAM [PRKDC], the SPOT signal as a fraction of Bim BH3's signal on the same receptor and array in test [1] and in test [2] was 0.02 each time.

With VEQFSEASQQMAELSEVLVLRLENYE, the SPOT signal as a fraction of Bim BH3's signal on the same receptor and array in test [1] and in test [2] was 0.02 each time.

With VEQFSEASQQDAELSEVLVLRLENYE, the SPOT signal as a fraction of Bim BH3's signal on the same receptor and array in test [1] and in test [2] was 0.02 throughout.

Consider HPRRESQVRQLAWIGDGVWVSIRLDS, for which the SPOT signal as a fraction of Bim BH3's signal on the same receptor and array was found to be 0.03 in test [1] and 0.02 in test [2].

For the molecule KLPVVGIGKHDCGMATDLALRCLVET [CCDC76], the SPOT signal as a fraction of Bim BH3's signal on the same receptor and array in test [1] and in test [2] was 0.01 throughout.

Regarding SALETQVAAAVQALLDDYLAQLSLEP [TRO], the SPOT signal as a fraction of Bim BH3's signal on the same receptor and array in test [1] and in test [2] was 0.02 throughout.

For the molecule AFTEREASEIDKSIGEAIQYLHSINI [MAPKAPK2], the SPOT signal as a fraction of Bim BH3's signal on the same receptor and array in test [1] and in test [2] was 0.02 each time.

Consider LRCEMASTGEVACFLEGIHTAFLKAM [CPS1], for which the figures for the SPOT signal as a fraction of Bim BH3's signal on the same receptor and array in test [1] and in test [2] were 0.02 and 0.03, respectively.

For SVRYYPSGDADASGSDDATCRLYDLR, the SPOT signal as a fraction of Bim BH3's signal on the same receptor and array in test [1] and in test [2] was 0.01 each time.

PSLSKELTSSLAGVLDVSFDSDSQFP [CRTC1]: the SPOT signal as a fraction of Bim BH3's signal on the same receptor and array in test [1] was found to be 0.02; in test [2], 0.01.

For the molecule RLAHEHHCLRIKILGDCYYCVSGLPE [ADCY8], the figures for the SPOT signal as a fraction of Bim BH3's signal on the same receptor and array in test [1] and in test [2] were 0.03 and 0.02, respectively.

As to SVRYYPSGDAFASGSDDATCRLYDLR, the SPOT signal as a fraction of Bim BH3's signal on the same receptor and array in test [1] and in test [2] was 0.02 in each case.

Take CILNSFYGYVDRKGARWYSMEMAGIV [POLE]: the SPOT signal as a fraction of Bim BH3's signal on the same receptor and array in test [1] came out at 0.09; in test [2], 0.1.

As to CALIAGATLHDAWLGDSQVILVQQGQ, the values for the SPOT signal as a fraction of Bim BH3's signal on the same receptor and array in test [1] and in test [2] were 0.02 and 0.01, respectively.

RGAMLSLATGLAHSGSDLSLLVPEIE [FAM115A]: the SPOT signal as a fraction of Bim BH3's signal on the same receptor and array in test [1] was found to be 0.09; in test [2] it was 0.06.

With LSPGRSVTAGDIIVGDEILKGHTQDT [FLAD1], the SPOT signal as a fraction of Bim BH3's signal on the same receptor and array in test [1] and in test [2] was 0.01 each time.

Turning to KNIAGALAFWMANALELLNFIKQDRD [MLLT4], the SPOT signal as a fraction of Bim BH3's signal on the same receptor and array in test [1] was 0.03; in test [2], 0.02.

As to RDPQGWVAGNLSARLDGAAGFTLPGF [MST1R], the SPOT signal as a fraction of Bim BH3's signal on the same receptor and array in test [1] and in test [2] was 0.02 in each case.

For the molecule QQMHHNAATADAQRADMLRGLSPRES [NCOR2], the SPOT signal as a fraction of Bim BH3's signal on the same receptor and array in test [1] was found to be 0.02; in test [2], 0.01.

Consider GLFSATSGVDLKYVLDTFGQEVRPVS [DDX7], for which the SPOT signal as a fraction of Bim BH3's signal on the same receptor and array in test [1] and in test [2] was 0.02 throughout.

IVGGCVVGIAMARFADFIRGMLKLIL [DIRC2]: the SPOT signal as a fraction of Bim BH3's signal on the same receptor and array in test [1] worked out at 0.25; in test [2], 0.18.

With VDFYQPTCIVDQCGADSLGCDRLGCF [HDAC3], the SPOT signal as a fraction of Bim BH3's signal on the same receptor and array in test [1] and in test [2] was 0.01 throughout.

As for AALFLHAGCQDLTAGEDGKVQVWSGS [TEP1], the SPOT signal as a fraction of Bim BH3's signal on the same receptor and array in test [1] and in test [2] was 0.02 throughout.

On to PPDAHVLGKALEAALQDFSLDLRSTG [CIITA], for which the SPOT signal as a fraction of Bim BH3's signal on the same receptor and array in test [1] worked out at 0.01; in test [2] it was 0.02.

GKPETCTGQDLADLGDRLRDWFQLLH [SPOCK2]: the SPOT signal as a fraction of Bim BH3's signal on the same receptor and array in test [1] was found to be 0.02; in test [2] it was 0.01.

For VILADPDGHEDCFVGDEAFRELSKMD [GLOD4], the SPOT signal as a fraction of Bim BH3's signal on the same receptor and array in test [1] and in test [2] was 0.01 throughout.

FRFAQLCGLHDVIHADELEELMCYYQ [CLTCL1]: the SPOT signal as a fraction of Bim BH3's signal on the same receptor and array in test [1] and in test [2] was 0.02 throughout.

For the molecule ITVVGDVGGRIAIIVDDIIDDVESFV [PRPSAP1], the SPOT signal as a fraction of Bim BH3's signal on the same receptor and array in test [1] and in test [2] was 0.02 in each case.

Consider CGDLASLSIDDWTLGEEVDGRRLVVA [BIRC6], for which the SPOT signal as a fraction of Bim BH3's signal on the same receptor and array in test [1] and in test [2] was 0.02 each time.
